# Values quoted from earlier work in PMC3742580.
# Target: Ras (Homo sapiens) (UniProt P01112)
# Chain of RalGDS RA (Q12967 798-885): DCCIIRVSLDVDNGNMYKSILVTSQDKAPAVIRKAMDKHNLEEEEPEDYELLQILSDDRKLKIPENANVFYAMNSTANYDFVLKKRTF
substance,measurement,value
RalGDS RA (from UniProt Q12967),Kd,1900 nM
